Laboratory results: US20130326736A1

What was measured:
[1] = target: CLAVATA2 (CLV2; At1g65380) (Arabidopsis) (UniProt O80809); assay: cell-based or functional assay
[2] = target: CORYNE (CRN; At5g13290) (Arabidopsis) (UniProt Q9LYU7); assay: cell-based or functional assay
UniProt Q9LYU7, sequence (Q9LYU7 34-401): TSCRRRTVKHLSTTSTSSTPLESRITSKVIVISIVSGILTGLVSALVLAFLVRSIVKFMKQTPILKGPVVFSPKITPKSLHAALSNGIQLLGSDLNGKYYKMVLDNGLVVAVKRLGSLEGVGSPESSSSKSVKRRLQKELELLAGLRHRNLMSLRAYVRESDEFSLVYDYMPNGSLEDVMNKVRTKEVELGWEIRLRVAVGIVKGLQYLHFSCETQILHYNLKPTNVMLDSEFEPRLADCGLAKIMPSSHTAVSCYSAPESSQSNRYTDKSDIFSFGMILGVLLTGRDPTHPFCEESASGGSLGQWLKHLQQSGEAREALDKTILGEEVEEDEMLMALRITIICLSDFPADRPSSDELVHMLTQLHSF

UniProt O80809, sequence (O80809 26-720): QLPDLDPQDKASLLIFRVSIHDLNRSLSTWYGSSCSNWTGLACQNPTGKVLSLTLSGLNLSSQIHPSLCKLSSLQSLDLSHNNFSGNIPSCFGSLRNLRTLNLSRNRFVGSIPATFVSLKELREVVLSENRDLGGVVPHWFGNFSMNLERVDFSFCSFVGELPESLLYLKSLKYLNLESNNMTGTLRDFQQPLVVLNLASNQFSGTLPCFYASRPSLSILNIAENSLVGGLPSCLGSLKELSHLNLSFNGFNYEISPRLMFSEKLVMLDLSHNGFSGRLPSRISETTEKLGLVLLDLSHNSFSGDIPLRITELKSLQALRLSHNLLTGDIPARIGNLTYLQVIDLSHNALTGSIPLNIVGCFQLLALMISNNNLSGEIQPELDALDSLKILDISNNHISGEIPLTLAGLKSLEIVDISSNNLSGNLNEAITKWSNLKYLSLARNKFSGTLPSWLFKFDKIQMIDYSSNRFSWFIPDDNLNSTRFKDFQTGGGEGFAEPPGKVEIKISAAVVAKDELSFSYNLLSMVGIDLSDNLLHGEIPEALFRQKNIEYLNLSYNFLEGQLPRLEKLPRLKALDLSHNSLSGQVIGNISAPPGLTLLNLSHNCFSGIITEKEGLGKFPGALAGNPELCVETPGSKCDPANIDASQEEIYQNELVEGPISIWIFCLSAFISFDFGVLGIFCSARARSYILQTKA

Substance: HgCLE2ΔSP (soybean cyst nematode CLE protein, overexpressed in Arabidopsis) (ligand)
- wus-like (%) T1 shoot phenotypes, overexpression in clv2-1 [1]: 0%
- wus-like (%) T1 shoot phenotypes, overexpression in crn-1 [2]: 0%

Substance: HsCLE1 (beet cyst nematode CLE protein, overexpressed in Arabidopsis) (ligand)
- wus-like (%) T1 shoot phenotypes, overexpression in clv2-1 [1]: 0%
- wus-like (%) T1 shoot phenotypes, overexpression in crn-1 [2]: 0%

Substance: HsCLE2 (beet cyst nematode CLE protein, overexpressed in Arabidopsis) (ligand)
- wus-like (%) T1 shoot phenotypes, overexpression in clv2-1 [1]: 0%
- wus-like (%) T1 shoot phenotypes, overexpression in crn-1 [2]: 0%
